From the supplement of paper PMC9170038

Tests used:
MS2 coat protein [1] = assay: apparent KD of MS2 coat protein, switch ON state; designed switch direction (-1 OFF switch, 1 ON switch): -1; higher = weaker reporter binding; conditions: FMN input: 0 or 200 uM; Eterna round: R93 (includes R88 designs)
In short: (§1)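 Illumina sequencing clusters served as templates for on-chip transcription of the designed RNA switches. SNAP-549-labelled MS2 coat protein was then titrated in twofold steps from 0.7 or 1.5 nM to 3 µM, allowing 0.8–1.5 h per step at first and 10–20 min per step later. The buffer held 100 mM Tris-HCl pH 7.5, 80 mM KCl and 4 mM MgCl2, without or with constant ligand. Apparent KD is the median per design of normalised cluster binding-curve fits.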

MS2 coat protein [2] = assay: apparent KD of MS2 coat protein, switch OFF state (with FMN for OFF switches, without FMN for ON switches); designed switch direction (-1 OFF switch, 1 ON switch): -1; higher = weaker reporter binding; conditions: FMN input: 0 or 200 uM; Eterna round: R93 (includes R88 designs)
In short: as §1

Sequence	apparent KD of MS2 coat protein (MS2 coat protein [1])	apparent KD of MS2 coat protein (MS2 coat protein [2])
AAAGGACGAGGAUAUACAUGAGGAUCACCCAUGUAAAAAGCGUAGCAAAAGAGCUUAUGUAGAAGGCGUCCAAA [Meechl Ex3 2 R2 v4]	20 nM	49.3 nM
AAAGGAGUAGGAUAUACAUGAGGAUCACCCAUGUAAAAAACAUAAUAAAAGAACUUAUGUAGAAGGGCUCCAAA [69%, Moding Meechl, 11]	35.8 nM	77.9 nM
AAAGUGUCAGGAUAUGCGAAGGCAUCUGACAGAUGAGGAUCGCAGAAGGGACAUGAGGAUCACCCAUGUAAAAA	65.6 nM	117 nM
AAAUCGGCAGGAUAUACAUGAAAAUUAAAAAAAAAAAAAAAACAUGAGGAUCACCCAUGUAGAAGGGUCAAAAA [Exclusion 2 - Omei 3]	77.9 nM	75.2 nM
AAAUGACAUGAGGAUCACCCAUGUCAGGAUAUGACUUGAAAAAUAAAAUAAAAACAUGUCAGAAGGGACAUGAA [Design 47: Sub-opt E]	16.5 nM	17.6 nM
AAAUGUCUAGGAUAUACAUGAGGAUCACCCAUGUGUAAAAAUAAAUACACAAAAGAAAGUAGAAGGAGACAAAG [Mat - Exclusion 3 - Mayanna mod - D121]	21.6 nM	59.9 nM
AAAUGUUGAGGAUAUACAUGAGGAUCACCCAUGUGUAAAAAUAAAUACACAAAAGAAAGUAGAAGGCAACAAAA [Ex 3 May 11]	28.7 nM	79.7 nM
AAAUUGUCAGGAUAUCGUAGAAUAGUGAAAAACUAGAGCUACGAGAAGGGACAUGAGGAUCACCCAUGUAAAAC [May 92]	43.3 nM	54.4 nM
AAAUUGUCAGGAUAUGUAGCAAAAGGUGAUCAAAAAAAGCUACAGAAGGGACAUGAGGAUCACCCAUGUAAAAA [Ex4: 936]	242 nM	359 nM
AACAAGUGAGGAUAUGAAAAUAAAACAAACAAACAAAUAAAUCAGAAGGCACAUGAGGAUCACCCAUGUAAAAA [JR_Exc004_Sub1203]	17.1 nM	18.5 nM
AACAGGACAGGAUAUACAUGAGGAUCACCCAUGUGAGAAUUCAGUAGAUUGCCACAGAGUAGAAGGGUCCUGGA [Ruby 100]	58.5 nM	102 nM
AACAGUACAGGAUAUACAUGAGGAUCACCCAUGUAAAAAUAAAAGGGAAUCUCAAAAAGUAGAAGGGUACUGGA [Moding Maslow revisited (73) 13]	72.5 nM	36.3 nM
AACAGUACAGGAUAUACAUGAGGAUCACCCAUGUGAAAAGAAAGUGGCGUACCACAAAGUAGAAGGGUACUGGA [Mat - Exclusion 3 - JL mod - D24]	27.5 nM	96.8 nM
AACAGUACAGGAUAUACAUGAGGAUCACCCAUGUGAAAAUUAAGUGGAAAACCACAAUGUAGAAGGGUACUGGA [Mat - Exclusion 3 - Eli mod - D49]	46.1 nM	219 nM
AACAGUACAGGAUAUACAUGAGGAUCACCCAUGUGAAAAUUAAGUGGAGAACCACAAUGUAGAAGGGUACUGGA [Mat - Exclusion 3 - Eli mod - D48]	133 nM	57.3 nM
AACAGUACAGGAUAUACAUGAGGAUCACCCAUGUGAAAAUUAAGUGGAGAACCACAGUGUAGAAGGGUACUGGA [Mat - Exclusion 3 - Eli mod - D52]	142 nM	49.8 nM
AACAGUACAGGAUAUACAUGAGGAUCACCCAUGUGAAAUAAAAGUGGCGUACCACAAAGUAGAAGGGUACUGGA [Mat - Exclusion 3 - JL mod - D22]	27.3 nM	119 nM
AACAGUACAGGAUAUACAUGAGGAUCACCCAUGUGAAGAAUAAGUGGAGUACCACAAAGUAGAAGGGUACUGGA [Ruby 88]	31.8 nM	104 nM
AACAGUACAGGAUAUACAUGAGGAUCACCCAUGUGACAUAAAUAAAACAAAAAUAAAAGUAGAAGGGUACUGGA [Ruby 43]	28.5 nM	60 nM
AACAGUACAGGAUAUACAUGAGGAUCACCCAUGUGAGAAAUAAGUGGCGUACCACAAAGUAGAAGGGUACUGGA [Mat - Exclusion 3 - JL mod - D21]	32.6 nM	150 nM

Sequence	apparent KD of MS2 coat protein (MS2 coat protein [1])	apparent KD of MS2 coat protein (MS2 coat protein [2])
AACAGUACAGGAUAUACAUGAGGAUCACCCAUGUGAGAAUUAAAAGGCGUACCUAAAUGUAGAAGGGUACUGGA [JL Maslow Revisted mod 19]	56.3 nM	61.8 nM
AACAGUACAGGAUAUACAUGAGGAUCACCCAUGUGAUAGGAAUAAAACAAAAAUAAAAGUAGAAGGGUACUGGA [Ruby 46]	34 nM	145 nM
AACAUACAUGAGGAUCACCCAUGUCAGGAUAUGCCGGGUUAGAGCCAACUGAAAAACCGUAGAAGGGACGAAAA [Bilbo Confounded 8 - Jieux - Exclusion 1]	66.9 nM	79.5 nM
AACAUGUAAGGAUAUGCUGCUCGUCACAAAAGUGAUGAGUAGCAGAAGGUACAUGAGGAUCACCCAUGUAAAGA [JL eternac mod 14]	50.6 nM	111 nM
AACAUGUCAGGAUAUGCAAAAGGAGACUGACACGCGAGUGAGCAGAAGGGACAUGAGGAUCACCCAUGUUCAAA [Mat - Mod of Meechl]	20.9 nM	15.6 nM
AACAUGUCAGGAUAUGUAGCAAAAGGUGAUCAAAAAAAGCUACAGAAGGGACAUGAGGAUCACCCAUGUAAAAA [Ex4: 934]	126 nM	37.1 nM
AACAUGUCAGGAUAUGUAGCAUGAUACGAAAGUAUCAUGCUACAGAAGGGACAUGAGGAUCACCCAUGUGAUCA [Ex4: 940]	26.7 nM	22 nM
AACAUGUCAGGAUAUGUGGAAAGAAUAAAAGAAAUAAGAACACAGAAGGGACAUGAGGAUCACCCAUGUCAACA [May 31]	27.7 nM	25.7 nM
AACUGACAUGAGGAUCACCCAUGUCAGGAUAUGCAUCUUAGGAAAAAAAAACUAAGAUGCAGAAGGGACAUGGA [Design 4: Super Stable 4]	23.9 nM	46.2 nM
AACUGACAUGAGGAUCACCCAUGUCAGGAUAUGCUUCAUAAAAUAAAAAUAAAAUGAUGCAGAAGGGACAUGAA [Design 27 :P Sub-opt 3]	15.4 nM	13.5 nM
AACUGGGCAGGAUAUACAUGAGGAUCACCCAUGUAAAGAAAAGAAAGAUCCGAAGAAAGUAGAAGGGCCUGGAA [Variant 3 of Mod 1 of Ex3 sub 3, by Tesla's Dusciple Round 1]	98 nM	126 nM
AAGAAACAUGAGGAUCACCCAUGUGAGGAUAUCUAAAAGAAAAGAAAAGAAAGAAGAAAGAGAAGGCACAAAGG [Setut]	34.7 nM	64.1 nM
AAGAACCUAGGAUAUACAUGAGGAUCACCCAUGUAAAAGAAAGAAAGGGAAAAGAAAAGUAGAAGGAGGAAGAA [Heqakheperre Shoshenq II]	12.1 nM	15.7 nM
AAGAACGGAGGAUAUACAAAAUAAAAGAAAAGAAAGAAAGAACAUGAGGAUCACCCAUGUAGAAGGCCGAAGAA [Sehetepibre Sewesekhtawy]	20.9 nM	29 nM
AAGAACUCAGGAUAUACAUGAGGAUCACCCAUGUAAAAGAAAGAGGGAAAAGAGAAAAGUAGAAGGGAGAAGAA [Ptolemy IV Philopator]	14 nM	46.9 nM
AAGAACUGAGGAUAUACAUGAAAGAAAGAAAAGAAAAGAAAACAUGAGGAUCACCCAUGUAGAAGGCAGAAGAA [EteRNA is fun!]	16.9 nM	14.4 nM
AAGAAGAAAGGAUAUACAAGGAAGAAAGAAAAGAAAAGAAAACAUGAGGAUCACCCAUGUAGAAGGUUCUAGAA [EteRNA is fun!]	15.2 nM	9.5 nM
AAGAAGACAGGAUAUACAUGAGGAUCACCCAUGUAAAAGAAAGAAGGGAAAGAGAAAAGUAGAAGGGUCAAGAA [Menkheperre Ini]	23.6 nM	25.3 nM
AAGAAGCAAGGAUAUACAUGAAAGAAAGAAAAGAAAAGAAAACAUGAGGAUCACCCAUGUAGAAGGUGCUAGAA [EteRNA is fun!]	34.6 nM	47.8 nM
AAGAAGCAAGGAUAUACAUGAGGAUCACCCAUGUAAAAGAAAGAAAAGGGAAAGAAAAGUAGAAGGUGCAAAGA [Ruby 69]	43.6 nM	72.8 nM
